Consider 1 substance from publication PMC12448354.

In experiment [1] the target is human von Willebrand factor (VWF) (human) (UniProt P04275).
Experiment [2] concerns the target Monodelphis domestica von Willebrand factor (VWF), purified from plasma (Monodelphis domestica).

For the substance “botrocetin from Bothrops jararaca (purified venom fraction) (complex)”, the reduction in the overall extent of platelet adhesion to collagen under flow (60 dyn/cm^2), human PRP with 4 ug/mL botrocetin, against the control without venom protein in experiment [1] worked out at 66%. Besides, in experiment [2], the reduction in the overall extent of platelet adhesion to collagen under flow (60 dyn/cm^2), opossum PRP with 4 ug/mL botrocetin, against the control without venom protein is 39%.
